From US7300651

Biological target: anti-idiotype antibody 3H1
Test: Ab1-Ab2 binding inhibition assays; competitor 8019

anti-idiotype antibody 3H1, sequence (VL, as listed by the source, chain 1 of 2): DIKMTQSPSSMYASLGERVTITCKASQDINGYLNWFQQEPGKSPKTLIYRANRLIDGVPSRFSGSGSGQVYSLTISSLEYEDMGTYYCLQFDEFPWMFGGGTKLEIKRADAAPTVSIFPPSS
anti-idiotype antibody 3H1, sequence (VH, as listed by the source, chain 2 of 2): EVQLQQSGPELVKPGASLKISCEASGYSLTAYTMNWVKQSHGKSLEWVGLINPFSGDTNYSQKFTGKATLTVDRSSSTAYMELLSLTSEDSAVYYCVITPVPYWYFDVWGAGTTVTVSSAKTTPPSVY

inhibition: 10 to 15%
Substance: control normal serum pool (antibody)
